Reference: article PMC6405316 (Nature, 2019)
Values belong to the molecule of their own block, whether it stands above or below them.

Tests used:
[1] = biological target: KCTD12 H1 domain (residues 200–325) (human) (UniProt Q96CX2); experiment: SEC
[2] = biological target: KCTD16 BTB domain wild-type (residues 23–124), SMT3 tag cleaved with ULP1 (human, UniProt Q68DU8 23-124); experiment: pull-down
[3] = biological target: His6-SMT3-tagged KCTD16 BTB domain (residues 23–124) (human, UniProt Q68DU8 23-124); experiment: pull-down
Chain of His6-SMT3-tagged KCTD16 BTB domain (residues 23–124) (Q68DU8 23-124): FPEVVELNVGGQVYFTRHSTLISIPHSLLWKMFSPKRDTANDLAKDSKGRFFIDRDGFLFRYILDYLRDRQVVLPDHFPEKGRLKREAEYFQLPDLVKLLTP

[4] = biological target: KCTD12 32–325, His6-GST tag cleaved by 3C protease (human, UniProt Q96CX2 32-325); experiment: SEC
Chain of KCTD12 32–325, His6-GST tag cleaved by 3C protease (Q96CX2 32-325): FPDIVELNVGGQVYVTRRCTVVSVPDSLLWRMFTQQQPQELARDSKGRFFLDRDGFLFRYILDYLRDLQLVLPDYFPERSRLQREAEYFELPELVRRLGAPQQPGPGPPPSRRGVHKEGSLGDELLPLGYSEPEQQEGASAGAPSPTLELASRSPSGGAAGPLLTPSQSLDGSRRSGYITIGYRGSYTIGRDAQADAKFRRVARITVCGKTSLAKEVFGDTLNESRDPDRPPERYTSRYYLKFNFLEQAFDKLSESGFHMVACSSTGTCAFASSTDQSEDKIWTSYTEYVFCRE

[5] = biological target: KCTD16 21–279, His6-GST tag cleaved by 3C protease (human, UniProt Q68DU8 21-279); experiment: SEC
Chain of KCTD16 21–279, His6-GST tag cleaved by 3C protease (Q68DU8 21-279): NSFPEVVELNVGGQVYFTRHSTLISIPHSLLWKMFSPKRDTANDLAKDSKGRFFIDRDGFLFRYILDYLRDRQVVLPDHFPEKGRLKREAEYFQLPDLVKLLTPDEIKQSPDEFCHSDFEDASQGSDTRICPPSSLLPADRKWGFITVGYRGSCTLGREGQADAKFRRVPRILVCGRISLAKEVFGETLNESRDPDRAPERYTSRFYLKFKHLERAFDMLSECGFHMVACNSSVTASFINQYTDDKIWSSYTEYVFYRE

[6] = biological target: His6-GST-tagged KCTD12 32–325 (human, UniProt Q96CX2 32-325); experiment: pull-down
Chain of His6-GST-tagged KCTD12 32–325 (Q96CX2 32-325): as the sequence (Q96CX2 32-325) above

Chain of KCTD12 H1 domain (residues 200–325) (human) (Q96CX2 200-325): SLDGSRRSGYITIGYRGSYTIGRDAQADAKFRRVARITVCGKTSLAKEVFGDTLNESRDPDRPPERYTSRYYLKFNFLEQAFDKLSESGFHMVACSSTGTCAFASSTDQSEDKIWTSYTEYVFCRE
Chain of KCTD16 BTB domain wild-type (residues 23–124), SMT3 tag cleaved with ULP1 (Q68DU8 23-124): as the sequence (Q68DU8 23-124) above

- binding result [4]: binds
- binding result [5]: binds
Molecule: KDPIEDINSPEHIQRRLSLQLPILHHAYLPSIGGVDAS [GABAB2 876–913, His6-SUMO tag cleaved by 3C protease]

- binding result [6]: binds
Molecule: KDPIEDINSPEHIQRRLSLQLPILHHAYLPSIGGVDAS [His6-SUMO-tagged GABAB2 876–913]

More lines, now with the values behind:

Molecule: Human Gβ1γ2 heterodimer (His6-Gβ1, Gγ2 C68S) (from UniProt P62873;P59768) (complex)
- stoichiometry N (Gβγ per KCTD12H1 chain (5:5)) [1]: 1

Molecule: KDPIEDINSPEHIQRRLSLQLPILHHAYLPSIGGVDAS [His6-GST-tagged GABAB2 C-terminal fragment (residues 876–913)]
- binding result [2]: binds
- binding result [3]: binds
